Reference: the supplement of paper PMC12338614

B1: library; numbered along this chain (parent)
chain: MEVVDPQQLGMFTEGELMSVGMDTFIHRIDSTEVIYQPRRKRAKLIGKYLMGDLLGEGSYGKVKEVLDSETLCRRAVKILKKKKLRRIPNGEANVKKEIQLLRRLRHKNVIQLVDVLYNEEKQKMYMVMEYCVCGMQEMLDSVPEKRFPVCQAHGYFCQLIDGLEYLHSQGIVHKDIKPGNLLLTTGGTLKISDLGVAEALHPFAADDTCRTSQGSPAFQPPEIANGLDTFSGFKVDIWSAGVTLYNITTGLYPFEGDNIYKLFENIGKGSYAIPGDCGPPLSDLLKGMLEYEPAKRFSIRQIRQHSWFRKKHPPAEAPVPIPPSPDTKDRWRSMTVVPYLEDLHGADEDEDLFDIEDDIIYTQDFTVPGQVPEEEASHNGQRRGLPKAVCMNGTEAAQLSTKSRAEGRAPNPARKACSASSKIRRLSACKQQ

Variants of: B1
Test: STK11 functional score (HeLa growth suppression), rescaled enrichment; synonymous median = 1, nonsense median = 0 (normalised score)
Settings: with HeLa; variant type: missense
Outline: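 The values are functional scores: wild-type-corrected log ratios of post- versus pre-selection abundance, rescaled to synonymous and nonsense medians, merged over codons and replicate transfections, and carrying bootstrapped error. They derive from codon-randomised (POPCode), codon-optimised STK11 libraries that Bxb1 integrated at an AAVS1 landing pad in HeLa, with three transfections for each of three regions. Sequencing of tiled gDNA amplicons ran on NextSeq, at ~2 million reads per tile.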

STK11 functional score: each site, then its substitutions
Q382: H 1.15, T 1.29, Y 1.28, R 1.48, L 1.34, E 1.2, G 1.4, P 1.35, I 1.31, K 1.11, V 1.12, W 1.06, F 1.14, D 1.47, S 1.5, M 1.52
C391: M 1.62, H 1.46, I 1.07, G 1.22, A 1.51, E 1.58, T 0.912, S 0.743, L 1.54, V 0.834, R 1.6, F 0.922, N 0.483
R383: V 1.25, E 1.57, S 1.3, H 1.57, T 1.56, C 1.22, I 1.57, Q 1.51, F 1.2, L 1.42, Y 1.25, N 1.5, W 0.781, M 1.59, A 1.44, K 1.57, P 1.31, D 1.49, G 1.11
K388: N 1.53, G 1.31, F 1.24, T 1.42, D 1.31, Y 1.07, Q 1.21, L 0.826, V 1.3, P 0.884, R 1.54, A 1.17, M 1.39, I 0.996, H 1.12, W 1.5, S 1.19, E 1.42
A389: E 1.52, F 1.33, W 1.04, C 1.51, S 1.38, V 0.744, D 1.2, G 1.46, I 1.59, L 1.54, H 1.51, T 1.25, Q 1.18, R 1.56, K 1.61, P 1.3, Y 1.15
R384: W 1.35, H 1.47, I 1.06, Y 1.53, F 1.55, G 1.28, N 1.54, E 1.53, A 1.33, Q 1.62, D 1.2, V 1.22, P 1.56, M 1.36, S 1.53, T 1.15, C 1.14, L 1.43
G385: M 1.59, V 0.433, H 1.56, Q 1.57, K 1.6, D 1.3, W 1.28, S 1.51, P 1.26, N 1.59, R 1.13, F 1.36, A 1.46, E 1.41, I 1.45, L 0.869, T 1.58
V390: H 0.912, W 0.447, A 1.51, E 1.44, L 1.22, F 1.18, G 1.39, R 1.4, P 1.52, T 1.59, D 1.4, S 1.5, C 1.06, Q 1.63, Y 1.41
P387: D 1.56, E 1.6, S 1.41, N 1.63, G 1.58, W 1.62, C 1.54, R 1.47, T 1.56, K 1, Q 1.37, M 1.44, Y 0.935, F 1.14, H 1.45, A 1.32, L 1.02, I 1.54, V 1.13
L386: S 1.45, W 1.13, N 0.528, R 1.43, A 1.6, C 1.31, H 0.959, F 0.706, E 1.55, Q 1.37, T 1.6, I 1.14, G 1.19, P 0.743, V 1.06
